How the values were obtained:
CD56 [1] = biological target: T1, CD56 (UniProt P13591 20-858, limits assumed); assay: cell-based or functional assay
HER2 = biological target: T2, HER2 (UniProt P04626 23-1255, limits assumed); assay: immunocytochemistry with peroxidase secondary antibody, SKBR3 cells (HER2-positive, no CD56); '-' = absence of fixation
T2 construct: whole, on cells; SK-BR-3 (SKBR3) cells, CD56-negative control line

CD56 [2] = biological target: T1, CD56; assay: cell-based or functional assay; remark: listed apart in the source
CD56 [3] = biological target: T1, CD56; assay: cell-based or functional assay; remark: listed apart in the source

B1: MF-m906-MMAE (antibody, human IgG1, kappa)
heavy: not shown
light: DVVMTQSPLSLPVTPGEPASISCRSSQSLLHSNGYNFLDWYLQKPGQSPQLLIYLGSNRASGVPDRFSGSGSGTDFTLKISRVEADDVGVYYCMQSLQTPWTFGHGTKVEIKRTVAAPSVFIFPPSDEQLKSGTASVVCLLNNFYPREAKVQWKVDNALQSGNSQESVTEQDSKDSTYSLSSTLTLSKADYEKHKVYACEVTHQGLSSPVTKSFNRGEC
modifications: MMAE linker-drug (pyridine-caproic-ValCit-PABc-MMAE, compound 8) grafted on interchain cysteines; mean DAR 3.89
With B1 the “IC50, XTT cytotoxicity test, H69 small cell lung carcinoma line” value (CD56 [1]) was 1 to 2 nM.

B2: m906 (antibody, human IgG1, kappa)
heavy: not shown
light: DVVMTQSPLSLPVTPGEPASISCRSSQSLLHSNGYNFLDWYLQKPGQSPQLLIYLGSNRASGVPDRFSGSGSGTDFTLKISRVEADDVGVYYCMQSLQTPWTFGHGTKVEIKRTVAAPSVFIFPPSDEQLKSGTASVVCLLNNFYPREAKVQWKVDNALQSGNSQESVTEQDSKDSTYSLSSTLTLSKADYEKHKVYACEVTHQGLSSPVTKSFNRGEC
notes: also called mAb-001; anti-CD56 antibody m906
B2: no binding (tested: 650 ng/mL) (HER2).

B3: MIO-003 (antibody, human IgG1, kappa, N297A)
heavy: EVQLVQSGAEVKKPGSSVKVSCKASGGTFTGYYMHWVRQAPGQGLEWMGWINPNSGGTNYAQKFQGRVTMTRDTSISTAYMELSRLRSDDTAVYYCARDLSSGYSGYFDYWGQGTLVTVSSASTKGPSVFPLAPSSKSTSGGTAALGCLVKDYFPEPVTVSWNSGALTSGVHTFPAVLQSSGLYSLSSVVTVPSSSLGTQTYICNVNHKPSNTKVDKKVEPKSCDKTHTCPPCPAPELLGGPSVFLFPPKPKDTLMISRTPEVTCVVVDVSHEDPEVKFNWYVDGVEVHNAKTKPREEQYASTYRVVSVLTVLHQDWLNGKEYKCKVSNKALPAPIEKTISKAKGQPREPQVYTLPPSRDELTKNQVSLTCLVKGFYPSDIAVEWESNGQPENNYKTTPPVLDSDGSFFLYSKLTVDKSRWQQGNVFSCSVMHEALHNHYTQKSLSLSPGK
light: DVVMTQSPLSLPVTPGEPASISCRSSQSLLHSNGYNFLDWYLQKPGQSPQLLIYLGSNRASGVPDRFSGSGSGTDFTLKISRVEADDVGVYYCMQSLQTPWTFGHGTKVEIKRTVAAPSVFIFPPSDEQLKSGTASVVCLLNNFYPREAKVQWKVDNALQSGNSQESVTEQDSKDSTYSLSSTLTLSKADYEKHKVYACEVTHQGLSSPVTKSFNRGEC
modifications: MMAE linker-drug (pyridine-caproic-ValCit-PABc-MMAE) as in MIO-001; attachment residues not itemised
In the case of B3, the “IC50 (pM), XTT assay, PeTa n = 3” value (CD56 [2]) is reported as 14900 pM, the “IC50 (pM), XTT assay, WaGa n = 3” value (CD56 [2]) is reported as 10300 pM and the “IC50 (pM), XTT assay, H69 n = 3” value (CD56 [3]) is reported as 1950 pM. For the same binder, the “IC50 (pM), XTT assay, H209 n = 3” value (CD56 [3]) was 22100 pM.
